In publication PMC12381204:

Target: Nucleocapsid protein (N), unmodified (SARS-CoV-2, UniProt P0DTC9 2-419)
Test: fluorescence polarization
Details: protein: recombinant, tags: N-terminal 6xHis-TEV site, cleaved by TEV (Gly left before S2), chain copies: 2, label: 5'-FAM

Binder | Kd (hairpin) [nM] | Kd (single strand, unstructured) [nM]
CUGUGUGGCUGUCACUCGGCUGCAUGCUUAGUGCACUCACGCAG (structured_RNA) [SL4 RNA] | 10.9 ± 1.4 | 
AAAAAAAAAAAAAAAAAAAAAAAAAAAAAA (ssRNA) [polyrA 30-mer] |  | 71.7 ± 0.8
